# Assay: soluble on expression in E. coli; label from the status in PepcDB or PDB records
row,Sequence,soluble on expression in E. coli
1,MSVSSRGAASPAHRTAPTKWLFTKEEMKKTASIQEGMSREEELASRQMAAAFIQEMIDGLNNVKDPKMKIGHTGLCVAHTHMHRFYYLHSFKKYDYRDVGAACVFLAGKSQECPRKLSHVISVWRERKDRKQLTTETARNEAAQIIVLLESMILQTIAFDLNVHLPHIYVLDIMKKVDKKEHYRPLTSCAYYFATDVIAVTDWSLRYSAASMSIVIIHLMAAYANVRIERLFADFINEDSPWYAKFDETMTNEKLREMEVDFLVTYRNSCQFHHASKFNFREHRPMLENPDVRKLDRTRDARSHSPMVHHVPDSTVNVRPRAYVPRDELTVERLNKERGVEEERRKRERDRMAGKLDSSTSSEKRARIDPLANNFVSSSSSSNGKLAPPPIPPQLNFPPPPIVSSGYNHKNQINRKNHENNHTNSSVSPAFVPSARTFDVAPMLTPPTAPKLQSADNSDMDLEDGELE,not soluble
2,MSVSYKGTISKTHSVFKPEKGRYYIYGALGCPFTHRAILARSLKKLEPVLGLVLSHWQLDSKGARFLPAPHRPEKYKERFFTATGGIASAKLDESEELGDVNNDSARLFVDGAFDPVENISRLSELYYLNDPKYPGTKFTVPVLWDSKTRKIVNNESGDIIRILNSGVFDEFIQSEETNVIDLVPHDLIDEIDKNIKWVHPKINLGVYKVGLAENGKIYETEVKTLFENLQKMECVLKENYKRLEEQFSGNKQKILAKYFVLGQRLTEADIRLYPSIIRFDVVYVQHFKCNLKTIRDGFPYLHLWLINLYWNYAEFRFTTDFNHIKLFYIRMEVSRNKINQFGIVPLGPKPDISRL,soluble
3,MSVTAPSARPAPDHHAQFLQLLDTSLTQNAFIKLVLAKHVGPEADLQRLIIKQLTVKEQPCLSFVYRYKTRDITKNFSLDEGIAAIAELLPAAFKNAHLLTLTDEVQLEYSKKGKSSLFKGKPQTQRDAPSAEHNREKNRFLDLSRPFLADLGVTNKQHELIPAMSRKWKQINKFIEVFSHALGSSPIKLDQPVRVADFGSGKGYLTFAIHDYLRNTLKAEGEVTGVELREDMVTLCNAAAQRLEHPGLVFKCGDVRSVAPSQLEVMIALHACDIATDYAIHTGIRSGAAIIMCSPCCHKQIRQQIQSPQLLKPMLQYGLHLGQQAEMVTDSLRALFLEACGYETKVFEFISLEHTNKNKMILAVKRAEPQDPSQLLARIEELKAFYQISEHCLETLLKADGYLG,soluble
4,MSVTLHTTSGDIKIELYVDDAPKACENFLALCASDYYNGCIFHRNIKDFMVQTGDPTHSGKGGESIWGGPFEDEFVSALKHDSRGCVSMANNGPDSNRSQFFITYAKQAHLDMKYTLFGKVIDGFDTLEEIETIKVDNKYRPLVQQK,not soluble
5,MSVTQIDLDDEALADVMRIAAVHTKKEAVNLAMRDYVERFRRIEALARSRE,soluble
6,MSVVAAVDCGTNSIRLLISEQTPTGLREITRQMTIIRLGEGVDATGKIDPVAIERARVALSGYVDTMLAHKVTAVRMVATSATRDASNKDDFFAMTADLLGAVVPGACAEVISGAEEAELSFIGAVADIPDTDRPVCVIDLGGGSTEFVVGKKTGEILGAYSTQMGCVRLTERLMVSDPPTAEEIAQAREYVDTQLTVALDNVPIMQASMVVGCAGTFTTVAALALGLDSYDPQRIHGSVHTADRLREETQRLIGETSQQRAAHSVMHLGRADVIAGGSVVIEQILAMMQRLGVSDSVTISEKDILDGIVARLLEELEHHHHHH,soluble
7,MSVVAQVSGEEVTRLLAPIDPAVPAGLFDVEDETYQAIDQEMVKLGGLQEASIDWVYIEDASRQYLSQQCKHLRIVAHLSAAWLRSGCWEQWGCTLALLAGMLECYWEAAHPKPGPKGFLGKRKLVALVIDRLAEALPRLDRFTYTPTHAAAAQAALKRLQQQETVQLDTAALGELERLLGKYSELANGVGEAAVPKAPAATEKPAPLADVIATPVSRMSMGNERETRRAVLSMAELINQQDPYDATGYQLRRFGLWAHIQVAPQVRQGNRTELMAVPLDITRFYEEAIASKAVDPALLQRIEKSLTACPFWIRGSFLAATVATQLAMCEVAEAIRCATARFVQRMPSLQQLCFSDGMVFVDDQCLAWLKGTQGPSGQGATPQEFSGLREELVSQLETGGIEPLLLRLQGLQAGVRAPRERCHTTVIAADLLAARGVSWLAQDLCANVARTMQQTTASAWEPEVFERLQQYAASPVLAVQDKDQEPR,not soluble
8,MSVVSPDPAPVPHDPQRRALLRWLVGGGALAGGLGVSAVAQGYRFGVTHEQWNLVGLTRPVRLALLTDLHYGLYIGAGSVRRWVDATLAECPDLILLGGDLVDSHFDAAARPQQTAALLAELGRLRAPLGVYAVWGNHDYGSFGRSISQSPEASRADWAARRDALRAGLAGQGVTVLLNEGRSLRDDLWLGGVDDLRMGEADSVAALRGSGTRATVLLAHNPDVLLRLRSAPGLVLSGHTHGGQVRLPLLGALKVPADPRFTMGWVRGPQGIPAYVSRGLGMSGLPVRNLCEPEITLLTLLPPGALEHHHHHH,not soluble
9,MSWSDIINNNLIGSGNVSKAAILGFDGAVWAKSDNFNISVEEAVAAGKAFTSLDALLGTGLRLEGQKFLVLNADNDRIIGKQGGSGFFIYKTIQAVIISIYEKGLQPEMCSKTTGALADYFRSIKY,not soluble
10,MSYLDTATDLPNQTLFLEYLNIALSNARRHHAQVGVLLCQINNWSDLKRKRGDAVANAFLQEAGQKLKSNLRNGDIVSRWDKDEFIFLVSKVQDTSSLLGIAQRLMKPVLAPVTAGGRPFQPEITYGVALYPVDGEQVNDLIGHIRENLQQLLPQPTNPGSGLEHHHHHH,soluble
11,MSYNEKSEAIIKEEWLQRLEQFPFKQADMNRLIMNYLVTEGFKEAAEKFQHEADLEPSVELSSLDGRILIREAVQAGRIEEATQLVNQLHPELLGSDRYLFFHLQQLQLIELIRAGKVEEALSFAQSKLSESGEEAMFELERTLALLAFEKPQESPFADLLEQSYRQKIASELNSAILRCEQSEDSTPKMMFLLKLILWAQSKLDSRSISYPKMKNLETAHLEPKLEHHHHHH,not soluble
12,MSYYHHHHHHLESTSLYKKALAYTLPQLPYAYDALEPHIDARTMEIHHTKHHQTYVDNANKALEGTEFADLPVEQLIQQLDRVPADKKGALRNNAGGHANHSMFWQIMGQGQGQNGANQPSGELLDAINSAFGSFDAFKQKFEDAAKTRFGSGWAWLVVKDGKLDVVSTANQDNPLMGEAIAGVSGTPILGVDVWEHAYYLNYQNRRPDYLAAFWNVVNWDEVSKRYAAAK,soluble
13,MSYYHHHHHHLESTSLYKKSSSTPPRGVTVVNNFDAKRYLGTWYEIARFDHRFERGLEKVTATYSLRDDGGLNVINKGYNPDRGMWQQSEGKAYFTGAPTRAALKVSFFGPFYGGYNVIALDREYRHALVCGPDRDYLWILSRTPTISDEVKQEMLAVATREGFDVSKFIWVQQPGS,soluble
14,MTAKPLPIFLLPISAIRKAMEQMSFAELLIISILSKNAKDFVTLLTKPLKNMIISVDCWLSLKLVTASSELYLLYFKRKQRVRIEKSPYDKRYKKLYLPGFTEKQWIGHIVRVFSHNNGIVLSLKPLFSFRRGKIKETVELFKGLNVRKLVNHDSRIENRQLLKLFPTPNYLRLSNDYICESILVQNFETLELLEKKLSLNDILTTNCTNLEIHYQSLSDRNLNLFMKHWIRGSNPNLQSICVNFSREMRSFGAEVFKGIDHRKTIPQENFYWGKH,not soluble
15,MTALETQLTEIVEKEQGQKIIPFLQKLTQEERESLIPCLSRLEEYYNKFVQLEERTYGTRATSGQHHIIDLAALVIFPLKEFRKHEWGINTAHLNEIAAWHIPTWLDSYFVEGEGKEFGGFYNMDYEILMDWIERGILTISPSPQTIAGYLVNYIHTTPVLEKRDITINEHIWYLFEYDCGQNWHANPAKGYPYYTFQHFTENGKLDRMRVLKESLLAINRNFNKNLCSWFAGMFTALSPSVEEQLTLQPEMLAALSSPHSRPINIILGLLKNLCSHPRFLTDDFLDQTTVLFASDVKAVHQNTLGVLSKLAKEKKEYRDTICCAAAQGLMSRDESTQNKIVKLIQTFGETESPTLKEALSAYAETMLTSTKKELAAYLKDNVSDALSTDKVLLTTLDEQASVASFDYEPMPPILREDNRIQEITSIEDLIFLASQILDSNELYHFDLFLNALVEWNEQLEAKHITQWTPVLQRAYKLLINGGSSRNGILDSMMATFLIDYAKLLIKRFPVEAKELSTLHEKMVQKDELQKGQWRYRNLQRITIRQKSNKRTEFPIHKQLLYRTLDLLESNENRLPMLSTPTHMPAFIDPIVLIKRLGQYQQANAEPDDIDMQIALSRMALNNYPSQDFPTVLQELKGEYQSLFSFLIGAKDAVPQAPFAHPSWWMTAGLIKSPETVYTEFKDFSYSKSSREFLTGNFSWWTFQTPHSYTDYHNKVVNWTSSTLSFNVPEGENIHIVNKGKYDERVSYHSYDPHPLLVEMYSQIERYDDIQNDLPRLVWLAPNTPEPLFVWCIRCAIYDPMLNEVREVGITQATIEALHQLRHEWHETSYLLEASCMLVADKTSRSYAAGIWTDRVNTGCIDSARIGRILGSHQRTGWGPLKRLTDLIQQQMINVSPLHNRELELLLTSLIAELPEQPVKELKKLLEIYSELLSVNNSRVTDERILQLLEIWKNTANLKKVIVSINR,not soluble
16,MTAPRDVRVRTLSLLLPEPGRKGRLAAISAAVCHRRDMATYRYLDKDRNVLEEQDFGTVQDAEEHRLSVLGAEIIEEVEDSGTPES,not soluble
17,MTATLSWIDEITMTELERNPYPVYERLRAEAPLAYVPVLGSFVATTADLCRTIANSPDFEGIITKAGGRTFGHPAVIGVNGEIHRDLRSMVDPALQPSEVDRWVDGLVRPIARRYVEQFENDGKADLVSQYCEPVSVRALGDLLGLNEVSSDTLRDWFHRLSNSFTNAGVDADGEFTNPEGFVQGDEAKAEIRAVVDPLIDKWTVHPDDSAISHWLHDGMPEGQVRDREYIYPTLFVYLLGAMQEPGHGMASTLVGLFTRPEQLEAVIDEPALIPRAISEGMRWTSPIWSATARISTKDVTLGDVFLPEGSVVLLSYGSANHDTAVYDAPSDYDMTRPPLPHLAFGSGNHACAGIYFANHVCRIGLEELFEAIPNLERDSGADVEFWGWGFRGPTALRATWEV,not soluble
18,MTATWEKKEGNEGLLTVTVPAEKVNKALDQAFKKVVKQINVPGFRKGKVPRPIFEQRFGVEALYQDAIDILLPDAYGEAIDETDIKPVAQPEVSVTQIEKGKDFIFEATVTVEPEVKLGDYKGLEIEKQETELSDDELQEAIDHSLGHLAEMVVKEDGVVENGDTVNIDFSGSVDGEEFEGGQAEGYDLEIGSGSFIPGFEEQLEGMKVDEEKDVVVTFPEEYHAEELAGKEATFKTKVNEIKFKEVPELTDEIANELDAEANTVDEYKENLRKRLAEQKATDAENVEKEEAITKATDNTTIDIPEAMVNTELDRMVSEFAQRIQQQGLDLQTYFQISGQDETQLREQMKDDAEQRVKTNLTLTAIAEAEKIEATDEDIDKELEKMSKQFNISVEDIKNTLGNTDIIKNDVRIQKVIDLLRDNAKFVEGTKED,not soluble
19,MTCLSRDWATAQRLVEWALASTRCECFNVDSNFMAGLCLVENPTKQHYSFEVRKQVVDRFNAGQSKMDLAREFGLSSDQLVSSWVRAWRAGGDEALRPKPKGRPKGSASSKPLTEEDRLRREVEKLRAENAYLKKLRDLRNQRRS,not soluble
20,MTDCEFGYIYRLAQDYLQCVLQIPQPGSGPSKTSRVLQNVAFSVQKEVEKNLKSCLDNVNVVSVDTARTLFNQVMEKEFEDGIINWGRIVTIFAFEGILIKKLLRQQIAPDVDTYKEISYFVAEFIMNNTGEWIRQNGGWENGFVKKFEPKSGWMTFLEVTGKICEMLSLLKQYC,soluble
21,MTDKNPISEAKRYLDNARTILKEKGNKENRFYRDPKYVKMAGHTAYAGVLLALDACFGDKTKGRKDVGWYKEQLSGMDKTALKNFISAYDLLHVAMSYDGNTDSDIAKLGLTRADEIILWVEQRTVTC,soluble
22,MTDMDPSNMTGGPMNGHSAEKSSEEKKSPRSSRGVGEDLKNAGKDAMNTMENAGKNAWDKAGELGKSGINTVQSAGSAVKNGAKDLAGKVDKAL,soluble
